From US20030148958A1 (PROCTER AND GAMBLE, published 2003) come the findings set out here.

The target of one assay is CRF1R. The experiment in a line: cell-based or functional assay.
The target of a further assay is T1, CRF2R.
T1 sequence (Q13324 whole entry, species assumed, looked up): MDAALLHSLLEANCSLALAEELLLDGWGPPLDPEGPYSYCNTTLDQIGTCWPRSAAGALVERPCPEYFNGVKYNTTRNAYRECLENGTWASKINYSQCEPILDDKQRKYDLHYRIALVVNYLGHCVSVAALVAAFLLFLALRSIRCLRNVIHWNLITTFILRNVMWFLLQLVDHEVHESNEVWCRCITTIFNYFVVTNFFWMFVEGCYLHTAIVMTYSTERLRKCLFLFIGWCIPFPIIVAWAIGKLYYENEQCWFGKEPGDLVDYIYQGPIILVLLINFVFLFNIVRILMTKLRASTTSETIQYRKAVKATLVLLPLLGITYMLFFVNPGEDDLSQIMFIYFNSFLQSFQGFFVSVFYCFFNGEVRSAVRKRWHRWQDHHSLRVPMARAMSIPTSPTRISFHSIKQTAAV
Nature of the assay: cell-based or functional assay.
Throughout, for CRF1R Emax %: reference of the scale not given here.
Throughout, for CRF2R Emax %: reference of the scale not given here.

In the case of ZGPPISIDLPTYLLRILIEIEKQEKEKQQAANNRLLLDTI (not fully specified; C-terminal amide) [SEQ ID NO 252], in the assay with CRF1R, the “CRF1R EC50” value came to 226 nM and the “CRF1R Emax %” value is 100%. Also, in the assay with CRF2R, the “CRF2R EC50” value is 22.3 nM and the “CRF2R Emax %” value was 100%.

Turning to ZGPPISIDLPFQLLRILIEIEKQEKEKQQAANNRLLLDTI (not fully specified; C-terminal amide) [SEQ ID NO 255], in the assay with CRF1R, the “CRF1R EC50” value is 33.3 nM and the “CRF1R Emax %” value was determined as 84%. In the assay with CRF2R, the “CRF2R EC50” value came to 7 nM and the “CRF2R Emax %” value is 100%.

Turning to ZGPPISIDLPLHLLRKMIEIEKQEKEKQQATTNARLLDRV (C-terminal amide) [SEQ ID NO 239], in the assay with CRF1R, the “CRF1R EC50” value was determined as 587 nM and the “CRF1R Emax %” value amounted to 80%. In addition, in the assay with CRF2R, the “CRF2R EC50” value was found to be 13.2 nM and the “CRF2R Emax %” value is 100%.

As to ZGPPISIDLPLHLLRKMIEIEKQEKEKQQAANNALLLDTI (C-terminal amide) [SEQ ID NO 240], in the assay with CRF1R, the “CRF1R EC50” value turned out to be 915 nM and the “CRF1R Emax %” value was determined as 80%. For the same molecule, in the assay with CRF2R, the “CRF2R EC50” value is 22 nM and the “CRF2R Emax %” value came out at 100%.

As to ZGPPISIDLPLQLLEKMIEIEKQEKEKQQATTNARLLDRV (C-terminal amide) [SEQ ID NO 247], in the assay with CRF1R, the “CRF1R EC50” value is 1000 nM and the “CRF1R Emax %” value was determined as 34%. Also, in the assay with CRF2R, the “CRF2R EC50” value worked out at 18.8 nM and the “CRF2R Emax %” value stood at 100%.

In the case of ZGPPISIDLPLYLLRKMIEIEKQEKEKQQATTNARLLDRV (C-terminal amide) [SEQ ID NO 243], in the assay with CRF1R, the “CRF1R EC50” value amounted to 440 nM and the “CRF1R Emax %” value was determined as 96%. Besides, in the assay with CRF2R, the “CRF2R EC50” value is 16.8 nM and the “CRF2R Emax %” value is 100%.

Regarding ZGPPISIDLPLYLLRKMIEIEKQEKEKQQATTNARLLDTV (C-terminal amide) [SEQ ID NO 242], in the assay with CRF1R, the “CRF1R EC50” value turned out to be 358 nM and the “CRF1R Emax %” value stood at 99%. Also, in the assay with CRF2R, the “CRF2R EC50” value amounted to 29 nM and the “CRF2R Emax %” value was 94%.

Turning to ZGPPISIDLPLQLLRKMIEIEKQEKEKQQATTNARLLDTV (C-terminal amide) [SEQ ID NO 246], in the assay with CRF1R, the “CRF1R EC50” value was found to be 1000 nM and the “CRF1R Emax %” value came to 33%. For the same molecule, in the assay with CRF2R, the “CRF2R EC50” value came out at 38.8 nM and the “CRF2R Emax %” value was found to be 100%.

Regarding ZGPPISIDLPLHLLRKMIEIEKQEKEKQQAANNALLLATI (C-terminal amide) [SEQ ID NO 241], in the assay with CRF1R, the “CRF1R EC50” value stood at 308 nM and the “CRF1R Emax %” value is 99%. Further, in the assay with CRF2R, the “CRF2R EC50” value was found to be 12.6 nM and the “CRF2R Emax %” value worked out at 99%.

Take ZGPPISIDVPTYLLRKMIEIEKQEKEKQQAANNRLLLDTI (C-terminal amide) [SEQ ID NO 253]: in the assay with CRF1R, the “CRF1R EC50” value is 1000 nM and the “CRF1R Emax %” value was found to be 42%. For the same molecule, in the assay with CRF2R, the “CRF2R EC50” value was 41.8 nM and the “CRF2R Emax %” value came to 86%.

In the case of ZGPPISIDLPFQLLRKMIEIEKQEKEKQQAANNRLLLATI (not fully specified; C-terminal amide) [SEQ ID NO 250], in the assay with CRF1R, the “CRF1R EC50” value is 138 nM and the “CRF1R Emax %” value was found to be 99%. In addition, in the assay with CRF2R, the “CRF2R EC50” value was found to be 19.7 nM and the “CRF2R Emax %” value is 100%.

On to ZGPPISIDLPLQLLEKMIEIEKQEKEKQQAANNALLLATI (not fully specified; C-terminal amide) [SEQ ID NO 249], for which, in the assay with CRF1R, the “CRF1R EC50” value was 1000 nM and the “CRF1R Emax %” value came to 50%. Moreover, in the assay with CRF2R, the “CRF2R EC50” value was found to be 12.2 nM and the “CRF2R Emax %” value was determined as 92%.

With ZGPPISIDLPLQLLRKMIEIEKQEKEKQQAANNALLLDTI (not fully specified; C-terminal amide) [SEQ ID NO 248], in the assay with CRF1R, the “CRF1R EC50” value turned out to be 1000 nM and the “CRF1R Emax %” value was found to be 32%. For the same molecule, in the assay with CRF2R, the “CRF2R EC50” value was 19.6 nM and the “CRF2R Emax %” value is 98%.

Regarding ZGPPISIDVPIGLLRKMIEIEKQEKEKQQAANNRLLLDTI (not fully specified; C-terminal amide) [SEQ ID NO 254], in the assay with CRF1R, the “CRF1R EC50” value turned out to be 708 nM and the “CRF1R Emax %” value was 6%. Besides, in the assay with CRF2R, the “CRF2R EC50” value came to 100 nM and the “CRF2R Emax %” value was determined as 36%.

As to ZGPPISIDLPLYLLRKMIEIEKQEKEKQQAANNALLLATI (C-terminal amide) [SEQ ID NO 245], in the assay with CRF1R, the “CRF1R EC50” value is 381 nM and the “CRF1R Emax %” value turned out to be 100%. In the assay with CRF2R, the “CRF2R EC50” value came to 7.5 nM and the “CRF2R Emax %” value stood at 93%.

For ZGPPISIDLPLYLLRKMIEIEKQEKEKQQAANNALLLDTI (C-terminal amide) [SEQ ID NO 244], in the assay with CRF1R, the “CRF1R EC50” value turned out to be 300 nM and the “CRF1R Emax %” value came out at 100%. For the same molecule, in the assay with CRF2R, the “CRF2R EC50” value came to 8.8 nM and the “CRF2R Emax %” value is 98%.

With ZGPPISIDLPFQLLRKMIEIEKQEKEKQQAANNALLLDTI (C-terminal amide) [SEQ ID NO 251], in the assay with CRF1R, the “CRF1R EC50” value came out at 926 nM and the “CRF1R Emax %” value turned out to be 80%. Besides, in the assay with CRF2R, the “CRF2R EC50” value stood at 11.8 nM and the “CRF2R Emax %” value is 100%.
